Measurements as given in FireProtDB (doi:10.1111/j.1432-1033.1991.tb16033.x).

Settings: Escherichia coli (strain K12); pH 5.5; 25 °C; GdnHCl; Fluorescence; Sodium acetate 20 mM; NaCl 0.1 M; reversible: yes; whole UniProt chain shown

B1: Ribonuclease HI wild type, P0A7Y4 (protein)
chain: MLKQVEIFTDGSCLGNPGPGGYGAILRYRGREKTFSAGYTRTTNNRMELMAAIVALEALKEHCEVILSTDSQYVRQGITQWIHNWKKRGWKTADKKPVKNVDLWQRLDAALGQHQIKWEWVKGHAGHPENERCDELARAAAMNPTLEDTGYQVEV
With B1 the denaturant m value was 5.17 kcal/mol/M, the “denaturant midpoint (higher = more stable)” value was 1.79 M and the unfolding free energy was 9.26 kcal/mol.
